The text below walks through data of paper PMC9080631.

The chains are these.
B1: truncated A38 (N30) (ssDNA)
DNA: CTTTATGTGTCGGGATCAGATACACATCCG
B2: truncated C20 (N30) (ssDNA)
DNA: ACTTTTATCTCTCCTAACCTGTCCTGGGGT
B3: truncated C14 (N30) (ssDNA)
DNA: AACCAAATATCTACGCATCATTTTTCCTTT
B4: truncated B38 (N30) (ssDNA)
DNA: AAAAATTTTTCCTTGTATGTCATTCTCTCA
B5: truncated B4 (N30) (ssDNA)
DNA: GTCGAACCGTAGGGGCTATCTGTTGTGGGC
B6: DC14 (dimeric truncated C14) (ssDNA)
DNA: AACCAAATATCTACGCATCATTTTTCCTTTAACCAAATATCTACGCATCATTTTTCCTTT
B7: truncated A24 (N30) (ssDNA)
DNA: TGAACTACTTAGTTTTATCCACTTATCCTG

The data set addresses T1, alpha-methylacyl-CoA racemase (AMACR) (UniProt Q9UHK6 1-382).
T1 sequence: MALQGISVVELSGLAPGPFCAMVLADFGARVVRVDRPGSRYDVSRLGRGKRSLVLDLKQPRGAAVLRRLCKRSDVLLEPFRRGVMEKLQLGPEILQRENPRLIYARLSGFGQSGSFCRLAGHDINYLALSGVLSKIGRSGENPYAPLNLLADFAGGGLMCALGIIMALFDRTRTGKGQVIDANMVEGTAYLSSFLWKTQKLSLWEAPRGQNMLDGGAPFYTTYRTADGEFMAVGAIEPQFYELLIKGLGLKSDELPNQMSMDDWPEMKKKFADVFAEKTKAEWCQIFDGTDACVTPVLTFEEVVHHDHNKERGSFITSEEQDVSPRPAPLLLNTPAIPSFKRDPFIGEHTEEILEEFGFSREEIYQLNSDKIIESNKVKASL
Briefly: ELAA.
As to B1, the affinity, expressed as Kd, was 813 ± 405 nM. For B2, the Kd (in general, the concentration at which binding is half-saturated) came out at 206 ± 36.4 nM. The value for B3 was 150 ± 55.8 nM; that for B4 was 173 ± 91.8 nM; that for B5 was 869 ± 215 nM. The result for B6 reads 66.6 ± 17 nM; that for B7, 477 ± 170 nM.
